Test system: mineralizing bone surface and GFP labeled osteoblast surface of long bones (femur)
Assay: Automated bone histomorphometry of femur trabecula in PTH treated GFP reporter mice
Type: in vivo
Details: for AC measurements CL (common surface area of GFP marked osteoblast and AC stained label/bone surface area) / AC measurements NCL (surface area of AC stained label only/bone surface area) / AC measurements TL (total AC stained label area/bone surface area) / GFP measurements CL / GFP measurements NCL / GFP measurements TL: femur trabecula, day 7, mean
Procedure: The combination of image analysis techniques (registration, segmentation, smoothing and thresh-holding) is amenable to automating histomorphometry analysis. We have used long bones (femur) of PTH treated, skeletally mature mice (8˜9 month old) whose transgenic expression of Col3.6GFP or Col2.3GFP is expected to be uniformly low. Each study had 2 groups of treatment experiments, one that is PTH treated and one that is vehicle (0.001 N HCl containing 1 mg/ml BSA) treated. Each treated study was terminated 1 day after 2 days, 3 days, and 7 days dose of treatment has been administered. A single red fluorochrome label (AC, alizarin complexone, 30 mg/Kg IP) has been administered concurrently with the final PTH dose approximately 24 hours prior to end of each study. The experimental quantification includes GFP labeled osteoblast surface, mineralizing bone surface and total bone surface.
We need to measure both the AC stained label areas and GFP marked osteoblast areas that are commonly related to the same bone surface region. Often, the distance between the AC stained labels and the GFP marked osteoblast are not uniform, and sometimes they may be located far away. Our approach is to find the reference bone surfaces first, and then move the related AC stained labels and GFP marked osteoblast onto the reference bone surfaces using morphological transformation. FIG. 7(b) is the transformed image of FIG. 7(a). The red and green colors show, respectively, the AC stained labels and the GFP marked osteoblast on the bone surface. The yellow color is introduced to represent the common areas of AC stained labels and GFP marked osteoblast. From this projected image, we are able to calculate the ratios of the AC stained labels and GFP marked osteoblast of interest.
Here PTH treated and vehicle treated studies use poBCol3.6GFP-Tpz and pOBCol2.3GFP-Emd, respectively, where the former is control and the latter is test. The measurement follows the bone volume measurement guideline presented in [Parfitt et al., 1987]. In Table 3, the following notations are used and each measurement is the percentage of 2D perimeter measurement over the total 2D bone surface area (Red=AC measurements, Cyan=GFP measurements).
TL=total AC stained label area/bone surface area; CL=common surface area of the GFP marked osteoblast and AC stained label/bone surface area; NCL=surface area of the AC stained label only/bone surface area; TG=total surface area of the green GFP marked osteoblast/bone surface area; GL=common surface area of the GFP marked osteoblast and AC stained label/bone surface area; NGL=surface area of the GFP marked osteoblast only/bone surface area.

B1: PTH: PTH given to skeletally mature transgenic GFP reporter mice for 2, 3 or 7 days; anticipated bone-forming effect (peptide, UniProt P01270 32-115, looked up)
Parathyroid hormone: SVSEIQLMHNLGKHLNSMERVEWLRKKLQDVHNFVALGAPLAPRDAGSQRPRKKEDNVLVESHEKSLGEADKADVNVLTKAKSQ
modifications: Parathyroid hormone
In the case of B1, the “AC measurements CL (common surface area of GFP marked osteoblast and AC stained label/bone surface area)” value (Col 2.3-Emd mice) is reported as 3.82%, the “AC measurements NCL (surface area of AC stained label only/bone surface area)” value (Col 2.3-Emd mice) is reported as 12.65% and the “AC measurements TL (total AC stained label area/bone surface area)” value (Col 2.3-Emd mice) is reported as 16.48%. For the same molecule, the “GFP measurements CL” value (Col 2.3-Emd mice) was 3.82%, the “GFP measurements NCL” value (Col 2.3-Emd mice) was 8.00% and the “GFP measurements TL” value (Col 2.3-Emd mice) was 11.83%. The “AC measurements CL (common surface area of GFP marked osteoblast and AC stained label/bone surface area)” value (Col 3.6-Tpz mice) was 5.47%, the “AC measurements NCL (surface area of AC stained label only/bone surface area)” value (Col 3.6-Tpz mice) was 25.48% and the “AC measurements TL (total AC stained label area/bone surface area)” value (Col 3.6-Tpz mice) was 31.23%. The “GFP measurements CL” value (Col 3.6-Tpz mice) was 5.74%, the “GFP measurements NCL” value (Col 3.6-Tpz mice) was 4.24% and the “GFP measurements TL” value (Col 3.6-Tpz mice) was 9.99%. For the same molecule, the “calcified bone areas (TL), PTH treated case compared with vehicle treated case” value (day 7, in words) was “more calcified bone areas (TL)” and the “number of GFP marked osteoblast (TG), PTH treated case compared with vehicle treated case” value (day 7, in words) was “more”.

Source: patent US20150293026A1, “Automated system for tissue histomorphometry” (priority 2010, published 2015)
